The target in the assay is T1, human AILIM-IgFc (human, UniProt Q9Y6W8).
T1 chain: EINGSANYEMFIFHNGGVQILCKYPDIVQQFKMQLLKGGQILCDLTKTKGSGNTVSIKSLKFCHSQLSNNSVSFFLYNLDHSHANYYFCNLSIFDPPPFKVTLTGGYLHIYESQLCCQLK
The assay is described as follows: SPR.

B1: AII289 (JMab-138) (antibody, V domains shown)
VH: EVQLVESGGGLVQPGGSLRLSCAASGFTFSSYDMHWVRQATGKGLEWVSAIGTAGDTYYPGSVKGRFTISRENAKNSLYLQMNSLRAGDTAVYYCVRDNRKVTHEHYYYYGMDVWGQGTTVTVSS
VL: EIVLTQSPGTLSLSPGERATLSCRASQNIRSSYLAWYQQKPGQAPGLLIYGASSRATGIPDRFSGSGSGTDFTLTISRLEPEDFAVYYCQQFGSSPMCSFGQGTKLEIKR
By Kd is commonly meant the constant that tells how readily two partners part at equilibrium. Higher therefore signals weaker binding. With B1, the dissociation constant Kd came to 1.1 nM.

B2: AII394 (JMab-139) (antibody, V domains shown)
VH: EVQLVESGGGLVQPGGSLRLSCAASGFTFSSYDMHWVRQATGKGLEWVSAIGTAGDTYYPGSVKGRFTISRENAKNSLYLQMNSLRAGDTAVYYCVRDKRTVTHEHYYYYGMDVWGQGTTVTVSS
VL: EIVLTQSPGTLSLSPGERATLSCRASQSISSSSLAWYQQKPGQAPGLLIFGASSRATGIPDRFSGSGSGTDFTLTISRLEPEDFAVYYCQQFGSSPMCSFGQGTKLEIKR
B2 showed a Kd of 0.77 nM.

For the origin of these results see patent publication US20120039874 (published 2012).
